Publication PMC11259845, “Potent anti-coronaviral activity of pateamines and new insights into their mode of action”

Assays:
Conditions in all cases: protein: recombinant; tags: N-terminal 6xHis, thrombin site
eIF4A1(19-406) WT [1] = molecular target: T1, eIF4A1(19-406) WT (human, UniProt P60842 19-406); test: thermal shift assay; silvestrol, AMP-PNP, 5 mM Mg2+; TSA: 5 uM eIF4A1(19-406), 50 uM RNA, 1 mM AMP-PNP, 100 uM inhibitor, 75 uM SYPRO Orange, 20 mM HEPES-KOH pH 7.5, 100 mM KCl, 5 mM MgCl2, 1 mM DTT, 10% glycerol; melt 10-95 C
T1 sequence (P60842 19-406): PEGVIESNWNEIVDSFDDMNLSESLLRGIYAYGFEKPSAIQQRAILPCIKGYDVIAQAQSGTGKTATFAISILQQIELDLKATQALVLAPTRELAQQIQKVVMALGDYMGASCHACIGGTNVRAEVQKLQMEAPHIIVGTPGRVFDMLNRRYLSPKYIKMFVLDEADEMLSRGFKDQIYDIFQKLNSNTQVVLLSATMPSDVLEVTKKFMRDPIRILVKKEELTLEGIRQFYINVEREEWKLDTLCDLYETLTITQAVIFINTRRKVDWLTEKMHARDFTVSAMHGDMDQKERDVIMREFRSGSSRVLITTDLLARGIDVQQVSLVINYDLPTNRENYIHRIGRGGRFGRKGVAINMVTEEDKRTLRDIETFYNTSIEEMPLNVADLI

eIF4A1(19-406) WT [2] = molecular target: T1, eIF4A1(19-406) WT; test: thermal shift assay; PatA, AMP-PNP, 5 mM Mg2+; TSA: 5 uM eIF4A1(19-406), 50 uM RNA, 1 mM AMP-PNP, 100 uM inhibitor, 75 uM SYPRO Orange, 20 mM HEPES-KOH pH 7.5, 100 mM KCl, 5 mM MgCl2, 1 mM DTT, 10% glycerol; melt 10-95 C
eIF4A1(19-406) WT [3] = molecular target: T1, eIF4A1(19-406) WT; test: thermal shift assay; DMDAPatA, AMP-PNP, 5 mM Mg2+; TSA: 5 uM eIF4A1(19-406), 50 uM RNA, 1 mM AMP-PNP, 100 uM inhibitor, 75 uM SYPRO Orange, 20 mM HEPES-KOH pH 7.5, 100 mM KCl, 5 mM MgCl2, 1 mM DTT, 10% glycerol; melt 10-95 C

Binder	binding result (eIF4A1(19-406) WT [1])	binding result (eIF4A1(19-406) WT [2])	binding result (eIF4A1(19-406) WT [3])
GAGAGAGAGA (ssRNA) [(GA)5]	binds	binds	–
AGAGAGAGAG (ssRNA) [(AG)5]	binds	binds	–
UGUGUGUGUG (ssRNA) [(UG)5]	–	binds	binds
